Assay results reported in patent US20210115153A1 (PEPTRON, published 2021).

Target: T1, recombinant hMUC1-C (rhMUC1-C) protein (human, UniProt P15941 961-1152)
T1 construct: Expressed in E. coli Rosetta (not glycosylated), purified from inclusion bodies in 8 M urea over Ni-NTA; also called hMUC1-C terminal protein; not shown: C-terminal His-tag of vector pET-22b
T1 sequence: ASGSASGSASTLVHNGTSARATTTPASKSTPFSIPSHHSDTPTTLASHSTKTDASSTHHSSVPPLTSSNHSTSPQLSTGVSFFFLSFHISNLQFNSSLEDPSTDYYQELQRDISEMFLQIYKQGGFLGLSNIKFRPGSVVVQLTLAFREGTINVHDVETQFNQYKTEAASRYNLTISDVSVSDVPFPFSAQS
Assay: ELISA of hybridoma culture supernatant on coated rhMUC1-C
Procedure: The total amount of rhMUC1-C-specific IgG was measured by ELISA. A 96-well immunoplate was coated with 10 […] of rhMUC1-C protein (Example 2) and blocked with bovine serum albumin (BSA) in PBS-T (PBS containing 0.1% (v/v) Tween-20). The mouse serum immunized in Example 5, hybridoma cell culture supernatant, or purified antibody was diluted with PBS-T and cultured at room temperature for 2 hours. The plate was washed 3 times with PBS-T and cultured with a goat anti-mouse IgG HRP-conjugated secondary antibody for 1 hour. The plate was developed using TMB substrate solutions A and B (1:1 ratio) (Kirkegaard and Perry Laboratories, Gaithersburg, Md., USA), the absorbance was measured at 450 nm using a Spectra Max 250 microplate reader (Molecular Devices, Sunnyvale, USA), and a colorimetric assay was performed.
The spleen cells from mice immunized with rhMUC1-C protein in Example 5 were fused with SP2/0 myeloma cells (ATCC) using polyethylene glycol (PEG, Sigma-Aldrich). The fused cells were cultured and selected as a hypoxanthine-aminopterin-thymidine (HAT, Sigma-Aldrich) medium. The culture supernatant of the selected hybridoma cells was subjected to testing for binding to rhMUC1-C protein through ELISA and hybridoma cells, which were positive for binding, i.e., produced rhMUC1-C protein-specific antibody, were screened. […]

- binding result: binds
B1: anti-hMUC1 monoclonal antibody purified from hybridoma hMUC1-1H7 (KCLRF-BP-00395) (antibody, V domains shown)
VH: EVQLQQSGAELAKPGASVKMSCKVSGYTFTSYWMHWVKQRPGQGLEWIGYINPGTGYIEYNQKFKDKATLTADKSSSTAYMQLSSLTSEDSAVYYCASSTAPFDYWGQGTTLTVSS
VL: DIVITQSPSSMYASLGERVTITCKASQDIKSYLSWYQQKPWKSPKTLIYYATRLADGVPSRFSGSGSGQDYSLTISSLESDDTATYYCLQYDESPYTFGGGTKLEIKR
notes: also called anti-hMUC1 antibody; anti-hMUC1-C mouse antibody (1H7)
